Consider ten molecules from patent publication US7572764B2, “Uses of chemically-modified cholinesterases for detoxification of organophosporus compounds” (priority 2001, dated 2009).

A short description of the series: Clearance experiments in mice, pharmacokinetic profiles. The note with it: for pharmacokinetic behavior after modification by PEG versus non-modified enzyme / MRT / circulatory residence time (in words): mice; for MRT: mean residence time. Here is the method:
The pharmacokinetic profiles of non-modified and various preparations of PEG-modified AChE were resolved. Clearance experiments in mice (3 to 6 ICR male mice per enzyme sample) and analysis of pharmacokinetic profiles were carried out as described essentially previously [Kronman, C., et al. (1992), Gene 121, 295-304]. The study was approved by the local ethical committee on animal experiments. Mice were injected with the various rHuAChE preparations (40 μg/mouse in 0.2 ml PBS). Residual AChE activity in blood samples was measured and all values were corrected for background hydrolytic activity in the blood (using samples withdrawn 1 hour before performing the experiment). AChE activity values in samples removed immediately after injection were assigned a value of 100% and used for calculation of residual activity. […] This model enables determination of the parameters A and B which represent the fractions of the material removed from the circulation in the first-fast and second-slow elimination phases respectively, and T1/2α and T1/2β which represent the circulatory half-life values of the enzyme in the fast and slow phases. The pharmacokinetic parameters MRT (mean residence time, which reflects the average length of time the administered molecules are retained in the organism) and CL (clearance, which represents the proportionality factor relating the rate of substance elimination to its plasma concentration (CL=dose/area under the concentration-time curve), were independently obtained by analyzing the clearance data according to a noncompartmental pharmacokinetic model using the WinNonlin computer program. The comparative results are set forth in Table 3 below.

B1: PEG-modified sialidase-treated AChE (conjugate, UniProt P22303 32-614, looked up)
Acetylcholinesterase: EGREDAELLVTVRGGRLRGIRLKTPGGPVSAFLGIPFAEPPMGPRRFLPPEPKQPWSGVVDATTFQSVCYQYVDTLYPGFEGTEMWNPNRELSEDCLYLNVWTPYPRPTSPTPVLVWIYGGGFYSGASSLDVYDGRFLVQAERTVLVSMNYRVGAFGFLALPGSREAPGNVGLLDQRLALQWVQENVAAFGGDPTSVTLFGESAGAASVGMHLLSPPSRGLFHRAVLQSGAPNGPWATVGMGEARRRATQLAHLVGCPPGGTGGNDTELVACLRTRPAQVLVNHEWHVLPQESVFRFSFVPVVDGDFLSDTPEALINAGDFHGLQVLVGVVKDEGSYFLVYGAPGFSKDNESLISRAEFLAGVRVGVPQVSDLAAEAVVLHYTDWLHPEDPARLREALSDVVGDHNVVCPVAQLAGRLAAQGARVYAYVFEHRASTLSWPLWMGVPHGYEIEFIFGIPLDPSRNYTAEEKIFAQRLMRYWANFARTGDPNEPRDPKAPQWPPYTAGAQQYVSLDLRPLEVRRGLRAQACAFWNRFLPKLLSATDTLDEAERQWKAEFHRWSSYMVHWKNQFDHYSKQDRCSDL
modifications: PEG; sialidase-treated
As for B1, the “pharmacokinetic behavior after modification by PEG versus non-modified enzyme” value is recorded as “significantly improved”.

B2: PEG-modified mono-glycosylated AChE (conjugate, UniProt P22303 32-614, looked up)
Acetylcholinesterase: B1 Acetylcholinesterase
modifications: PEG; mono-glycosylated
Take B2: the “pharmacokinetic behavior after modification by PEG versus non-modified enzyme” value is recorded as “significantly improved”.

B3: PEG-modified non-glycosylated AChE (conjugate, UniProt P22303 32-614, looked up)
Acetylcholinesterase: B1 Acetylcholinesterase
modifications: PEG; non-glycosylated
Consider B3, for which the “pharmacokinetic behavior after modification by PEG versus non-modified enzyme” value is listed as “significantly improved”.

B4: PEG-modified fully sialylated AChE (conjugate, UniProt P22303 32-614, looked up)
Acetylcholinesterase: B1 Acetylcholinesterase
modifications: PEG; fully sialylated
For the molecule B4, the “pharmacokinetic behavior after modification by PEG versus non-modified enzyme” value was “significantly improved”.

B5: AChE-PEG-5000 high ratio (conjugate, UniProt P22303 32-614, looked up)
Acetylcholinesterase: B1 Acetylcholinesterase
modifications: PEG-5000, high ratio
With B5, the “T1/2[…]” value (circulatory half-life, fast phase, ICR mice, 40 μg/mouse) was 0.467 ± 0.083 h. For the setting “circulatory half-life, slow phase, ICR mice, 40 μg/mouse”, this molecule displayed a T1/2β of 9 ± 1.17 h. The “A (% of total)” value (fraction removed in first-fast elimination phase, ICR mice, 40 μg/mouse) is 46 ± 3 % of total. For the same molecule, the “B (% of total)” value (fraction removed in second-slow elimination phase, ICR mice, 40 μg/mouse) was 64 ± 3 % of total. The mean residence time MRT (noncompartmental model) worked out at 12.3 ± 1.33 h. The same molecule returned a Clearance (noncompartmental model, ICR mice, 40 μg/mouse) of 0.22 mL/min/kg.

B6: FBS-AChE (protein, UniProt P23795 31-613, looked up)
Acetylcholinesterase: EGPEDPELLVMVRGGRLRGLRLMAPRGPVSAFLGIPFAEPPVGPRRFLPPEPKRPWPGVLNATAFQSVCYQYVDTLYPGFEGTEMWNPNRELSEDCLYLNVWTPYPRPSSPTPVLVWIYGGGFYSGASSLDVYDGRFLTQAEGTVLVSMNYRVGAFGFLALPGSREAPGNVGLLDQRLALQWVQENVAAFGGDPTSVTLFGESAGAASVGMHLLSPPSRGLFHRAVLQSGAPNGPWATVGVGEARRRATLLARLVGCPPGGAGGNDTELVACLRARPAQDLVDHEWRVLPQESVFRFSFVPVVDGDFLSDTPEALINAGDFHGLQVLVGVVKDEGSYFLVYGAPGFSKDNESLISRAQFLAGVRVGVPQASDLAAEAVVLHYTDWLHPEDPARLREALSDVVGDHNVVCPVAQLAGRLAAQGARVYAYIFEHRASTLSWPLWMGVPHGYEIEFIFGLPLEPSLNYTIEERTFAQRLMRYWANFARTGDPNDPRDPKAPQWPPYTAGAQQYVSLNLRPLEVRRGLRAQACAFWNRFLPKLLSATDTLDEAERQWKAEFHRWSSYMVHWKNQFDHYSKQDRCSDL
For B6, the mean residence time (MRT) (noncompartmental model) was 22.33 h.

B7: PEG modified FBS-AChE (conjugate, UniProt P23795 31-613, looked up)
Acetylcholinesterase: B6 Acetylcholinesterase
modifications: PEG
Regarding B7, the “pharmacokinetic behavior after modification by PEG versus non-modified enzyme” value is listed as “significantly improved”.

B8: partially desialylated BChE (protein, UniProt P06276 29-602, looked up)
Cholinesterase: EDDIIIATKNGKVRGMNLTVFGGTVTAFLGIPYAQPPLGRLRFKKPQSLTKWSDIWNATKYANSCCQNIDQSFPGFHGSEMWNPNTDLSEDCLYLNVWIPAPKPKNATVLIWIYGGGFQTGTSSLHVYDGKFLARVERVIVVSMNYRVGALGFLALPGNPEAPGNMGLFDQQLALQWVQKNIAAFGGNPKSVTLFGESAGAASVSLHLLSPGSHSLFTRAILQSGSFNAPWAVTSLYEARNRTLNLAKLTGCSRENETEIIKCLRNKDPQEILLNEAFVVPYGTPLSVNFGPTVDGDFLTDMPDILLELGQFKKTQILVGVNKDEGTAFLVYGAPGFSKDNNSIITRKEFQEGLKIFFPGVSEFGKESILFHYTDWVDDQRPENYREALGDVVGDYNFICPALEFTKKFSEWGNNAFFYYFEHRSSKLPWPEWMGVMHGYEIEFVFGLPLERRDNYTKAEEILSRSIVKRWANFAKYGNPNETQNNSTSWPVFKSTEQKYLTLNTESTRIMTKLRAQQCRFWTSFFPKVLEMTGNIDEAEWEWKAGFHRWNNYMMDWKNQFNDYTSKKESCVGL
modifications: partially desialylated
As to B8, under “noncompartmental model”, the mean residence time MRT is 2.67 h.

B9: non-treated serum-derived BChE (protein, UniProt P06276 29-602, looked up)
Cholinesterase: B8 Cholinesterase
On to B9, for which the “circulatory residence time (in words)” value is listed as “resides in the circulation for extended periods of time”.

B10: PEGylated BChE (partially sialylated) (conjugate, UniProt P06276 29-602, looked up)
Cholinesterase: B8 Cholinesterase
modifications: PEG; partially sialylated
Take B10: the “circulatory residence time (in words)” value was “significantly increased”.

As a reminder, the MRT is a mean duration of stay, worked out from the concentration-time curve.
